# Assay results as given in PMC12743511, “HSD17β11 regulates PLIN5-ATGL mediated lipolysis, but not hepatic lipid metabolism in mice” (Journal of Lipid Research, 2025).
# T1: PLIN5-CFP (perilipin 5 fused to CFP) (UniProt Q00G26 1-463)
# T1 construct: perilipin 5 (PLIN5); FRET donor; source: transiently transfected (Lipofectamine 3000), in live cells
# T1 sequence (looked up): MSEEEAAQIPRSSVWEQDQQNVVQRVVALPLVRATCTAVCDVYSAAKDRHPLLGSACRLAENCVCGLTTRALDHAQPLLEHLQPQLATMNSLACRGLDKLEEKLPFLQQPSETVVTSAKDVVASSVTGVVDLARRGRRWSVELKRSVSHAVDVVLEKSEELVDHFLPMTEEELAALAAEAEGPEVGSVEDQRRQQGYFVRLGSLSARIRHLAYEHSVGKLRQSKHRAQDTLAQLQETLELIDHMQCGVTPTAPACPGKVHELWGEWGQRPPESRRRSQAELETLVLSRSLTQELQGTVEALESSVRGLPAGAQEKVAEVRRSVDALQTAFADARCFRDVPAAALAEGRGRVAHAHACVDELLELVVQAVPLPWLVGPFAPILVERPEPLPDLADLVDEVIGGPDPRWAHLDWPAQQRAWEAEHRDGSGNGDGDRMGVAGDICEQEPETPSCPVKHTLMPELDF
# B1: HSD17β11-YFP (hydroxysteroid 17β dehydrogenase 11 fused to YFP) (natural protein, UniProt Q8NBQ5 1-300, looked up)
# chain: MKFLLDILLLLPLLIVCSLESFVKLFIPKRRKSVTGEIVLITGAGHGIGRLTAYEFAKLKSKLVLWDINKHGLEETAAKCKGLGAKVHTFVVDCSNREDIYSSAKKVKAEIGDVSILVNNAGVVYTSDLFATQDPQIEKTFEVNVLAHFWTTKAFLPAMTKNNHGHIVTVASAAGHVSVPFLLAYCSSKFAAVGFHKTLTDELAALQITGVKTTCLCPNFVNTGFIKNPSTSLGPTLEPEEVVNRLMHGILTEQKMIFIPSSIAFLTTLERILPERFLAVLKRKISVKFDAVIGYKMKAQ
# notes: hydroxysteroid 17β dehydrogenase 11 (HSD17β11), wild type; FRET acceptor; also called HSD^WT-YFP; source: transiently transfected (Lipofectamine 3000), in live cells
# Target: T1, PLIN5-CFP (perilipin 5 fused to CFP)
# Assay: FRET or BRET; FLIM-FRET with phasor analysis in live transfected cells, CFP donor and YFP acceptor, 37°C, 5% CO2; basal and forskolin (PKA) stimulated; ATGL-CFP with PLIN5-YFP in WT and HSD^KO cells; read-out FRET ratio (pixels with FRET / pixels without)
# Conditions: partners not purified
binder,measurement,value
B1,fold increase in FRET ratio over donor alone,2.5 fold
